Results on four molecules are retold here after US20060068482A1 (Dana-Farber, published 2006).

Substitutions are numbered along the chain they refer to. Numbers in names are those of the source.

For data set [1], the target named is T1, p75 MLL test substrate, wild type (MLL aa 2,400 to 2,900, N-terminal Myc tag, C-terminal Flag tag), Q03164.
T1 chain: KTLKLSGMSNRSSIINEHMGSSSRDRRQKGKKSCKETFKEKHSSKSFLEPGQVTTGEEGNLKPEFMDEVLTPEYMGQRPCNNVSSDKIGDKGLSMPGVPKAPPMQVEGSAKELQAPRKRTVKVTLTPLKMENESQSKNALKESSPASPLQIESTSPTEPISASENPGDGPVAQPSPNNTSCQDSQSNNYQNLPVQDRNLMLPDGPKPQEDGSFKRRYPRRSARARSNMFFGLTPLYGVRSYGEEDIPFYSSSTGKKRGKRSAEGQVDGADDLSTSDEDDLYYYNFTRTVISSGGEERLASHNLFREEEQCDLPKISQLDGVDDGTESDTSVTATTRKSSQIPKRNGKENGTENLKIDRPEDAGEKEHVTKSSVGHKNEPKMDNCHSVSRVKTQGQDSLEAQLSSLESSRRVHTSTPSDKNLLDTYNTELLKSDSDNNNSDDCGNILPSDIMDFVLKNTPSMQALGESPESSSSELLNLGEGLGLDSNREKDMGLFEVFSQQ

The target in data set [2] is T2, p75 MLL substrate with mutant CS1/CS2 sites (MLL aa 2,400 to 2,900 of noncleavable MLL mt, Myc/Flag tagged), Q03164.
T2 chain: T1 chain with D267A, G268A, D319A, G320A

Data set [3] addresses T3, His-tagged 28 kDa alpha subunit of recombinant Taspase1 (human, UniProt Q9H6P5 1-233).
T3 construct: also called 28 kDa N-terminal alpha subunit; 29 kDa alpha; not shown: N-terminal His tag from bacterial expression vector ET15b (Novagen)
T3 sequence: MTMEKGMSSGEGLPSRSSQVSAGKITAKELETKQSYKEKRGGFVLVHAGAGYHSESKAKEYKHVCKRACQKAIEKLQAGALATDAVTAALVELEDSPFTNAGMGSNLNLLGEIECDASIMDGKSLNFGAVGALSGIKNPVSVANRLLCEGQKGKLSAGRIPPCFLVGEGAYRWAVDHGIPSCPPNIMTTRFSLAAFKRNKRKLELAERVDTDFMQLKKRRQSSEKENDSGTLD
Kind of data set: co-purification on a TALON column of N-terminal His-tagged Taspase1 from E. coli, Coomassie-stained SDS-PAGE, Edman degradation of the 22 kDa band. The source says:
Purification of recombinant N-terminal His-tagged Taspase1 yielded an expected 50 kDa product, a His-tagged 28 kDa a subunit, and a co-purified 22 kDa polypeptide (FIG. 5A). […] Similarly when an N-terminal and C-terminal epitope tagged human Taspase1 cDNA was expressed in the human 293 T cell line, the 50 kDa product also appeared to be processed to a 28 kDa N-terminal α subunit and a 22 kDa C-terminal β subunit (FIG. 3D). […] However, the D233A mutant retained some residual enzymatic activity, although it was ˜1000 fold less efficient than the wt enzyme (FIG. 5B, middle panel). […] Thus, this MLL cleaving protease is the first endopeptidase within the Asparaginase_{—}2 family with the novel characteristic of being a threonine aspartase, Taspase1.
His-tagged Taspase1 was expressed in BL21(DE3) cells and purified with a TALON column (Clontech). N-terminal protein sequencing was performed by Molecular Biology Core Facility at the Dana-Farber Cancer Institute.

B1: Recombinant N-terminal His-tagged Taspase1 (rTaspase1), wild type, expressed in E. coli (protein)
chain 1: T3 sequence
chain 2: TVGAVVVDHEGNVAAAVSSGGLALKHPGRVGQAALYGCGCWAENTGAHNPYSTAVSTSGCGEHLVRTILARECSHALQAEDAHQALLETMQNKFISSPFLASEDGVLGGVIVLRSCRCSAEPDSSQNKQTLLVEFLWSHTTESMCVGYMSAQDGKAKTHISRLPPGAVAGQSVAIEGGVCRLESPVN
Turning to B1, the “in vitro cleavage of 35S-methionine labeled p75 MLL substrate” value was “Recombinant Taspase1 (rTaspase1) cleaved the wt p75 MLL” in data set [1] and “but not the CS1/2 mt substrate” in data set [2]. For the same molecule, the “in vitro cleavage, enzyme titration and time course (appearance of p47 and p42 fragments)” value in data set [1] is listed as “The p47 fragment appears first, while higher enzyme concentration or more time is needed for the appearance of the p42 fragment”.

B2: 22 kDa beta subunit of recombinant Taspase1 (enzyme)
chain: B1 chain 2
notes: also called co-purified 22 kDa polypeptide; 22 kDa C-terminal beta subunit
On to B2, for which the binding result in data set [3] is on record as “binds”.

B3: Recombinant His-tagged Taspase1 D233A mutant (E. coli) (protein)
chain: MTMEKGMSSGEGLPSRSSQVSAGKITAKELETKQSYKEKRGGFVLVHAGAGYHSESKAKEYKHVCKRACQKAIEKLQAGALATDAVTAALVELEDSPFTNAGMGSNLNLLGEIECDASIMDGKSLNFGAVGALSGIKNPVSVANRLLCEGQKGKLSAGRIPPCFLVGEGAYRWAVDHGIPSCPPNIMTTRFSLAAFKRNKRKLELAERVDTDFMQLKKRRQSSEKENDSGTLATVGAVVVDHEGNVAAAVSSGGLALKHPGRVGQAALYGCGCWAENTGAHNPYSTAVSTSGCGEHLVRTILARECSHALQAEDAHQALLETMQNKFISSPFLASEDGVLGGVIVLRSCRCSAEPDSSQNKQTLLVEFLWSHTTESMCVGYMSAQDGKAKTHISRLPPGAVAGQSVAIEGGVCRLESPVN
For the molecule B3, the “in vitro cleavage activity of purified recombinant mutant enzyme” value in data set [1] was “˜1000 fold less efficient than the wt enzyme”.

B4: Recombinant His-tagged Taspase1 T234A mutant (E. coli) (protein)
chain: B3 chain with A233D, T234A
For the molecule B4, the “in vitro cleavage activity of purified recombinant mutant enzyme” value in data set [1] is “threonine 234 which became the N-terminus of the β subunit is absolutely essential for cleavage activity”.
